The values below come from patent US10660951.

The target of experiment [1] is envelope glycoprotein of HIV-1 HXB2 on pseudotyped virus (HIV-1 HXB2) (UniProt P04578). Kind of experiment: cell-based or functional assay.
Experiment [2] addresses envelope of HIV-1 isolate CNE5 on pseudotyped virus (HIV-1 CNE5). Nature of the experiment: cell-based or functional assay.

Consider b12 (antibody), for which the ND50, neutralization of pseudotyped virus (luciferase) in experiment [1] is 0.119 µg/mL; in experiment [2], 23.1 µg/mL.
